In paper doi:10.1101/2024.09.25.614941:
Like-named read-outs stand apart in the source and are kept apart here.

Key:
PfSir2A = biological target: T1, PfSir2A (UniProt Q8IE47); assay: EMSA
T1 sequence: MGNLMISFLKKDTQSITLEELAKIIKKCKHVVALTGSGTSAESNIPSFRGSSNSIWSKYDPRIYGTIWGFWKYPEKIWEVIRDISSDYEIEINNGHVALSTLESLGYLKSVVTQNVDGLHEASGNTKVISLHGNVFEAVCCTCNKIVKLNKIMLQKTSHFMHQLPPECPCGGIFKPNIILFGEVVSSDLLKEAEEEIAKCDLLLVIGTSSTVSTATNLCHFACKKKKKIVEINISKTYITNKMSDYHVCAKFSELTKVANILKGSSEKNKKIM

[1] = biological target: recombinant human 601-positioned nucleosome with histone H3 acetylated at lysine 9 (H3K9Ac dNuc) (human) (UniProt P68431); assay: native gel or EMSA

601 nucleosome assembly sequence DNA, 147 bp
Kd (PfSir2A): 4000 nM

H3K9Ac dNuc (human 601-positioned nucleosome)
Kd (PfSir2A; histone H3 K9 acetylated, no DNA modification stated): 1400 nM

B1: Plasmodium falciparum silent information regulator 2A (PfSir2A) (enzyme)
chain: T1 sequence
Kd [1]: 1400 nM
